Measured values: patent US20220175781A1, “CD40L COMPOSITIONS AND METHODS FOR TUNABLE REGULATION” (Obsidian Therapeutics, Inc., priority 2019, published 2022)

Tests used:
[1] = target: OT-001669 (Linker (MH); CD40L (aa 14-261 of WT); stop) (human) (UniProt P29965); test: cell-based or functional assay
[2] = target: OT-001668 (Linker (MH); CD40L (aa 1-261 of WT, (S110-G116) del); stop) (human) (UniProt P29965); test: cell-based or functional assay
[3] = target: OT-001661 (MH Linker; CD40L; stop) (human) (UniProt P29965); test: cell-based or functional assay
[4] = tested on: T cells (CD4 and CD8 positive); test: TMP dose response of OT-001962, CD40L MFI in CD4 and CD8 positive T cells; format: cell-based
Method: Dose response with TMP in T cells were conducted for OT-001962. Expression of CD40L was measured at (a) day 4 after transduction, (b) after freezing and thawing the cells or (c) after freezing and thawing the cells followed by restimulation with CD3/CD28 beads.

T cells (CD4+ and CD8+) = test: Regulation of CD40L in T cells by different drug responsive domains; format: cell-based
HEK 293T cells = test: hDHFR regulated CD40L surface expression, HEK 293T cells (flow cytometry); format: cell-based, human; settings: 50 μM TMP 24 hours
Method: HEK 293T cells were transiently […] with hDHFR regulated constructs namely OT-001962, OT-001961, OT-001963 for 24 hours. Following transfection, cells were treated with 50 μM TMP for 24 hours and CD40L cell surface expression was measured using flow cytometry. […] CD40L expression in the absence of ligand was virtually undetectable.

Jurkat cells = test: DHFR regulated CD40L expression, transduced Jurkat cells (flow cytometry); format: cell-based
Method: Jurkat cells were transduced with lentiviruses corresponding to OT-001662, OT-001962, OT-001961, OT-001963. 24 hours after transduction, cells were split and treated with DMSO or 50 μM TMP for another 24 hours until flow cytometry-based analysis. The results are shown in Table 37 where SR indicates stabilization ration.

HEK293T cells = test: Soluble CD40L ELISA, transiently transfected HEK293T cells; format: cell-based, human; settings: HEK293T cells
Method: Soluble CD40L (sCD40L) constructs OT-001672, OT-001686, OT-001673, OT-001674, OT-001677, and OT-001684 were transiently transfected into HEK293T cells. Cells were treated with one of the following ligands 1 μM Shield-1, 50 μM TMP, 1 μM Bazedoxifene (BZD) or vehicle control.
The pg/mL levels of soluble CD40L were measured by ELISA (Table 14). Recombinant soluble CD40L was used as the standard in the experiments.

HEK-Blue CD40 = HEK-Blue CD40 assay with sCD40L constructs; format: cell-based; settings: ligand treated
CD40 = CD40 (UniProt P25942); test: cell-based or functional assay
CD40, sequence (P25942 21-277 limits assumed): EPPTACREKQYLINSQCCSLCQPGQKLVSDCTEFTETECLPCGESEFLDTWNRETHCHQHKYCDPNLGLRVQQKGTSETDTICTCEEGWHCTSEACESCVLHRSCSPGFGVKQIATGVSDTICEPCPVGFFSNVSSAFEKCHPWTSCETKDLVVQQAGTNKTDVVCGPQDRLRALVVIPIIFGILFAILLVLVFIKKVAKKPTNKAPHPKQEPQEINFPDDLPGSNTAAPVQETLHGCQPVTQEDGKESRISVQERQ

HEK-Blue™ CD40 cells = test: HEK-Blue CD40 SEAP reporter co-culture with transduced Jurkat cells; format: cell-based; settings: ligand 24 h (1 μM Shield-1, 50 μM TMP or 1 μM Bazedoxifene), recombinant soluble CD40L as standard
Method: Jurkat cells transduced with OT-001661, OT-001685, OT-001662, OT-001666, or OT-001667 were co-cultured with HEK-Blue™ CD40 cells (Invivogen, San Diego, Calif.). Cocultures were treated with ligands (1 μM Shield-1, 50 μM TMP, 1 μM Bazedoxifene (BZD) or vehicle control) for 24 hours and the secreted embryonic alkaline phosphatase (SEAP) reporter levels were measured in the media. All vehicle treated samples had background SEAP activity. Recombinant soluble CD40L was used as the standard in the experiments.

recombinant human CD40-Fc receptor (from UniProt P25942 21-193) (Fc fusion)
CD40L levels in supernatant (shedding, ELISA) of Jurkat cells cultured 6 hours with 1.25 µg/ml hCD40-Fc; untreated 2137.69 [1]: 8440
CD40L levels in supernatant (shedding, ELISA) of Jurkat cells cultured 6 hours with 1.25 µg/ml hCD40-Fc; untreated 10 [2]: 10
CD40L levels in supernatant (shedding, ELISA) of Jurkat cells cultured 6 hours with 1.25 µg/ml hCD40-Fc; untreated 1382.06 [3]: 3600

B1: OT-001962: hDHFR regulated CD40L construct (protein)
chain: MVGSLNCIVAVSQNMGIGKNGDLPWPPLRNEFRYFERMTTTSSVEGKQNLVIMGKKTWFSIPEKNRPLKGRINLVLSRELKEPPQGAHFLSRSLDDALKLTEHPELANKVDMVWIVGGSSVIKEAMNHPGHLKLFVTRIMQDFESDTFFPEIDLEKYKLLPEYPGVLSDVQEEKGIKYKFEVYEKNDHMIETYNQTSPRSAATGLPISMKIFMYLLTVFLITQMIGSALFAVYLHRRLDKIEDERNLHEDFVFMKTIQRCNTGERSLSLLNCEEIKSQFEGFVKDIMLNKEETKKENSFEMQKGDQNPQIAAHVISEASSKTTSVLQWAEKGYYTMSNNLVTLENGKQLTVKRQGLYYIYAQVTFCSNREASSQAPFIASLCLKSPGRFERILLRAANTHSSAKPCGQQSIHLGGVFELQPGASVFVNVTDPSQVSHGTGFTSFGLLKL
CD40L expression (MFI) ([4]; CD4+, Day 4, TMP 0.1 nM): 388
CD40L expression (MFI) ([4]; CD4+, Day 4, TMP 1 nM): 396
CD40L expression (MFI) ([4]; CD4+, Day 4, TMP 10 nM): 405
CD40L expression (MFI) ([4]; CD4+, Day 4, TMP 100 nM): 388
CD40L expression (MFI) ([4]; CD4+, Day 4, TMP 1000 nM): 480
CD40L expression (MFI) ([4]; CD4+, Day 4, TMP 10000 nM): 1067
CD40L expression (MFI) ([4]; CD4+, Day 4, TMP 100000 nM): 5917
CD40L expression (MFI) ([4]; CD4+, Post Thaw, TMP 0.1 nM): 153
CD40L expression (MFI) ([4]; CD4+, Post Thaw, TMP 1 nM): 156
CD40L expression (MFI) ([4]; CD4+, Post Thaw, TMP 10 nM): 158
CD40L expression (MFI) ([4]; CD4+, Post Thaw, TMP 100 nM): 165
CD40L expression (MFI) ([4]; CD4+, Post Thaw, TMP 1000 nM): 166
CD40L expression (MFI) ([4]; CD4+, Post Thaw, TMP 10000 nM): 186
CD40L expression (MFI) ([4]; CD4+, Post Thaw, TMP 100000 nM): 395
CD40L expression (MFI) ([4]; CD4+, Restim, TMP 0.1 nM): 631
CD40L expression (MFI) ([4]; CD4+, Restim, TMP 1 nM): 647
CD40L expression (MFI) ([4]; CD4+, Restim, TMP 10 nM): 645
CD40L expression (MFI) ([4]; CD4+, Restim, TMP 100 nM): 644
CD40L expression (MFI) ([4]; CD4+, Restim, TMP 1000 nM): 737
CD40L expression (MFI) ([4]; CD4+, Restim, TMP 10000 nM): 1382
CD40L expression (MFI) ([4]; CD4+, Restim, TMP 100000 nM): 6275
CD40L expression (MFI) ([4]; CD8+, Day 4, TMP 0.1 nM): 181
CD40L expression (MFI) ([4]; CD8+, Day 4, TMP 1 nM): 178
CD40L expression (MFI) ([4]; CD8+, Day 4, TMP 10 nM): 182
CD40L expression (MFI) ([4]; CD8+, Day 4, TMP 100 nM): 182
CD40L expression (MFI) ([4]; CD8+, Day 4, TMP 1000 nM): 204
CD40L expression (MFI) ([4]; CD8+, Day 4, TMP 10000 nM): 393
CD40L expression (MFI) ([4]; CD8+, Day 4, TMP 100000 nM): 1941
CD40L expression (MFI) ([4]; CD8+, Post Thaw, TMP 0.1 nM): 111
CD40L expression (MFI) ([4]; CD8+, Post Thaw, TMP 1 nM): 116
CD40L expression (MFI) ([4]; CD8+, Post Thaw, TMP 10 nM): 114
CD40L expression (MFI) ([4]; CD8+, Post Thaw, TMP 100 nM): 117
CD40L expression (MFI) ([4]; CD8+, Post Thaw, TMP 1000 nM): 118
CD40L expression (MFI) ([4]; CD8+, Post Thaw, TMP 10000 nM): 129
CD40L expression (MFI) ([4]; CD8+, Post Thaw, TMP 100000 nM): 236
CD40L expression (MFI) ([4]; CD8+, Restim, TMP 0.1 nM): 254
CD40L expression (MFI) ([4]; CD8+, Restim, TMP 1 nM): 257
CD40L expression (MFI) ([4]; CD8+, Restim, TMP 10 nM): 258
CD40L expression (MFI) ([4]; CD8+, Restim, TMP 100 nM): 255
CD40L expression (MFI) ([4]; CD8+, Restim, TMP 1000 nM): 258
CD40L expression (MFI) ([4]; CD8+, Restim, TMP 10000 nM): 382
CD40L expression (MFI) ([4]; CD8+, Restim, TMP 100000 nM): 1185
CD40L positive (T cells (CD4+ and CD8+); All Cells, 100 uM TMP): 71.6%
MFI (T cells (CD4+ and CD8+); All Cells, 100 uM TMP): 1109
CD40L positive (T cells (CD4+ and CD8+); All Cells, DMSO): 46.5%
MFI (T cells (CD4+ and CD8+); All Cells, DMSO): 434
CD40L positive (T cells (CD4+ and CD8+); CD4+, 100 uM TMP): 83.5%
MFI (T cells (CD4+ and CD8+); CD4+, 100 uM TMP): 1468
CD40L positive (T cells (CD4+ and CD8+); CD4+, DMSO): 58.3%
MFI (T cells (CD4+ and CD8+); CD4+, DMSO): 548
CD40L positive (T cells (CD4+ and CD8+); CD8+, 100 uM TMP): 32.1%
MFI (T cells (CD4+ and CD8+); CD8+, 100 uM TMP): 455
CD40L positive (T cells (CD4+ and CD8+); CD8+, DMSO): 4.1%
MFI (T cells (CD4+ and CD8+); CD8+, DMSO): 157
% CD40L (HEK 293T cells): 14.3%
stabilization ratio, ranking among the hDHFR constructs (Jurkat cells; 50 μM TMP versus DMSO): highest stabilization ratio
TMP dependent regulation (Jurkat cells; 50 μM TMP versus DMSO 24 hours): strong TMP dependent regulation
% CD40L expression (Jurkat cells; TMP (50 μM)): 50%
SR (Jurkat cells; TMP (50 μM) versus Vehicle): 16.7
% CD40L expression (Jurkat cells; Vehicle (DMSO)): 3%

B2: OT-001672: Soluble CD40L (sCD40L) construct (protein)
chain: GSMHMQKGDQNPQIAAHVISEASSKTTSVLQWAEKGYYTMSNNLVTLENGKQLTVKRQGLYYIYAQVTFCSNREASSQAPFIASLCLKSPGRFERILLRAANTHSSAKPCGQQSIHLGGVFELQPGASVFVNVTDPSQVSHGTGFTSFGLLKL
Stabilization Ratio (HEK293T cells; soluble CD40L +Ligand versus Vehicle): 3.3
functionality in HEK-Blue CD40 assay (HEK-Blue CD40): higher functionality

B3: OT-001667 (Met; ER (aa 305-549 of WT, T371A, L384M, M421G, N519S, G521R, Y537S); Histidine; CD40L; stop) (ligand)
chain: MSLALSLTADQMVSALLDAEPPILYSEYDPTRPFSEASMMGLLTNLADRELVHMINWAKRVPGFVDLALHDQVHLLECAWMEILMIGLVWRSMEHPGKLLFAPNLLLDRNQGKCVEGGVEIFDMLLATSSRFRMMNLQGEEFVCLKSIILLNSGVYTFLSSTLKSLEEKDHIHRVLDKITDTLIHLMAKAGLTLQQQHQRLAQLLLILSHIRHMSSKRMEHLYSMKCKNVVPLSDLLLEMLDAHRLHMIETYNQTSPRSAATGLPISMKIFMYLLTVFLITQMIGSALFAVYLHRRLDKIEDERNLHEDFVFMKTIQRCNTGERSLSLLNCEEIKSQFEGFVKDIMLNKEETKKENSFEMQKGDQNPQIAAHVISEASSKTTSVLQWAEKGYYTMSNNLVTLENGKQLTVKRQGLYYIYAQVTFCSNREASSQAPFIASLCLKSPGRFERILLRAANTHSSAKPCGQQSIHLGGVFELQPGASVFVNVTDPSQVSHGTGFTSFGLLKL
SEAP reporter of HEK-Blue CD40 cells co-cultured 24 hours with transduced Jurkat cells plus 1 µM Bazedoxifene, given as Soluble CD40L (pg/ml) against a recombinant soluble CD40L standard (CD40): 2570 pg/mL
Soluble CD40L (HEK-Blue™ CD40 cells): 2565.91 pg/mL

B4: OT-001673: Soluble CD40L (sCD40L) construct (protein)
chain: GSSGISLIAALAVDYVIGMENAMPWNLPADLAWFKRNTLNKPVIMGRHTWESIGRPLPGRKNIILSSQPGTDDRVTWVKSVDEAIAACGDVPEIMVIGGGRVIEQFLPKAQKLYLTHIDAEVEGDTHFPDYEPDDWESVFSEFHDADAQNSHSYCFEILERRGSMHMQKGDQNPQIAAHVISEASSKTTSVLQWAEKGYYTMSNNLVTLENGKQLTVKRQGLYYIYAQVTFCSNREASSQAPFIASLCLKSPGRFERILLRAANTHSSAKPCGQQSIHLGGVFELQPGASVFVNVTDPSQVSHGTGFTSFGLLKL
ligand dependent regulation of soluble CD40L levels (HEK293T cells; ELISA): ligand dependent regulation
functionality in HEK-Blue CD40 assay (HEK-Blue CD40): higher functionality
